What all share (assay): cell-based or functional assay
Assay [1] concerns the target human IFNγ receptor on HEK-Blue IFN-γ cells (human).
Assay [2] concerns the target T1, human CD40 (human, UniProt P25942 21-277).
Assay [3] addresses human IFNγ receptor on HEK-Blue IFN-γ cells (human). The source holds these as a separate data set.
Assay [4] shares this target. The source holds these as a separate data set.
In assay [5] the target is T1, human CD40. This is another data set of the same source.

Read-outs that look alike come from different tables or passages of the source.

T1 sequence (P25942 21-277): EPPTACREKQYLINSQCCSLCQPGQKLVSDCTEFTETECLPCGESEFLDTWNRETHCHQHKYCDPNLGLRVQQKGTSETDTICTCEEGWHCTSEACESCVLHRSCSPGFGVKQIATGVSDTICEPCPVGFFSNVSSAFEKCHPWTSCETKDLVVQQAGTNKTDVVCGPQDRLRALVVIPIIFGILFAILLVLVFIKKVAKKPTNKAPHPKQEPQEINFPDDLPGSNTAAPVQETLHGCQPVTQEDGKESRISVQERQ

B1: IFA125 (antibody, human IgG2, kappa)
heavy: QVQLVESGGGVVQPGKSLRLSCAASGFTFSSNGIHWVRQAPGKGLEWVAVIWSDGSNKFYADSVKGRFTISRDNSKNTLYLQMNSLRAEDTAVYYCARASGSGSYYNFFDYWGQGTLVTVSSASTKGPSVFPLAPCSRSTSESTAALGCLVKDYFPEPVTVSWNSGALTSGVHTFPAVLQSSGLYSLSSVVTVPSSNFGTQTYTCNVDHKPSNTKVDKTVERKCCVECPPCPAPPVAGPSVFLFPPKPKDTLMISRTPEVTCVVVDVSHEDPEVQFNWYVDGVEVHNAKTKPREEQFNSTFRVVSVLTVVHQDWLNGKEYKCKVSNKGLPAPIEKTISKTKGQPREPQVYTLPPSREEMTKNQVSLTCLVKGFYPSDIAVEWESNGQPENNYKTTPPMLDSDGSFFLYSKLTVDKSRWQQGNVFSCSVMHEALHNHYTQKSLSLSPGGGGGSGGGGSGGGGSGGGGSQDPYVKEAENLKKYFNAGHSDVADNGTLFLGILKNWKEESDRKIMQSQIVSFYFKLFKNFKDDQSIQKSVETIKEDMNVKFFNSNKKKRDDFEKLTNYSVTDLNVQRKAIHELIQVMAELSPAAKTGKRKRSQMLFRGRRASQ
light: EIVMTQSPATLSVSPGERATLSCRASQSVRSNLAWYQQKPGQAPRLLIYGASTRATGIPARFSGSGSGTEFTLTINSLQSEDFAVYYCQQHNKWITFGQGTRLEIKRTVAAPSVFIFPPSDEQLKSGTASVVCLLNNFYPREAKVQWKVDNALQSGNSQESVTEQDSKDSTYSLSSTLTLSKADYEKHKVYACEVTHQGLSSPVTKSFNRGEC
Take B1: the “IFNγ EC50 (HEK-Blue IFNγ reporter cells)” value in assay [1] was determined as 0.142 ng/mL. For the same molecule, in the assay with human CD40 [2], the “CD40 EC50 (HEK-Blue CD40L NFκB-SEAP reporter cells)” value came out at 8.8 ng/mL.

B2: IFA43 (antibody, human IgG2, kappa)
heavy: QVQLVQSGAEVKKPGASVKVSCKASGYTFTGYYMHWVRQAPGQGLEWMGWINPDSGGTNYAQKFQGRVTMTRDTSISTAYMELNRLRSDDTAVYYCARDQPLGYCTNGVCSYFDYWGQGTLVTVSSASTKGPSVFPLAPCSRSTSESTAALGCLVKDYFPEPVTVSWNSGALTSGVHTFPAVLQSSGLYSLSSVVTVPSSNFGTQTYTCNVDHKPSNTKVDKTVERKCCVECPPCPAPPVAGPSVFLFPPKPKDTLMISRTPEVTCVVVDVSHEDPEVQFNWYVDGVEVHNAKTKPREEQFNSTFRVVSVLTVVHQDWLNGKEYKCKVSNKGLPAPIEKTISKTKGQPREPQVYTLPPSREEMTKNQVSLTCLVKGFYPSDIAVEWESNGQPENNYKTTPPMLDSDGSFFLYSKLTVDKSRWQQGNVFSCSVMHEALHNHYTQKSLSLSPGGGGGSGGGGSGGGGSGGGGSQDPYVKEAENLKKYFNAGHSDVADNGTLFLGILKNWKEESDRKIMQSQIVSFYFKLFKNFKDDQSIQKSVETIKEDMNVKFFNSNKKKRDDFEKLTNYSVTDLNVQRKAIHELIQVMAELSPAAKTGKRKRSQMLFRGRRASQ
light: DIQMTQSPSSVSASVGDRVTITCRASQGIYSWLAWYQQKPGKAPNLLIYTASTLQSGVPSRFSGSGSGTDFTLTISSLQPEDFATYYCQQANIFPLTFGGGTKVEIKRTVAAPSVFIFPPSDEQLKSGTASVVCLLNNFYPREAKVQWKVDNALQSGNSQESVTEQDSKDSTYSLSSTLTLSKADYEKHKVYACEVTHQGLSSPVTKSFNRGEC
As for B2, the “IFNγ EC50 (HEK-Blue IFNγ reporter cells)” value is < 0.01 ng/mL in assay [3] and < 0.001 ng/mL in assay [4]. Further, in the assay with human CD40 [5], the “CD40 EC50 (HEK-Blue CD40L NFκB-SEAP reporter cells)” value was found to be 50.8 ng/mL.

The record behind these values is US20250320302A1 (EVOTEC INTERNATIONAL, published 2025).
